# Measurements as given in US20230063116A1 (Regeneron, published 2023).
# Like-named read-outs stand apart in the source and are kept apart here.
# B1: human VEGF165 (REGN110) (ligand)
# chain: APMAEGGGQNHHEVVKFMDVYQRSYCHPIETLVDIFQEYPDEIEYIFKPSCVPLMRCGGCCNDEGLECVPTEESNITMQIMRIKPHQGQHIGEMSFLQHNKCECRPKKDRARQENPCGPCSERRKHLFVQDPQTCKCSCKNTDSRCKARQLELNERTCRCDKPRR
# notes: It is treated here as the same molecule; also called hVEGF165; hVEGF165(M1-R191)
# B2: REGN3, full-length VEGF Trap (aflibercept) (Fc fusion, human, UniProt P17948 129-231, looked up, not shown: a dimerising Fc or GST)
# chain: SDTGRPFVEMYSEIPEIIHMTEGRELVIPCRVTSPNITVTLKKFPLDTLIPDGKRIIWDSRKGFIISNATYKEIGLLTCEATVNGHLYKTNYLTHRQTNTIIDVVLSPSHGIELSVGEKLVLNCTARTELNVGIDFNWEYPSSKHQHKKLVNRDLKTQSGSEMKKFLSTLTIDGVTRSDQGLYTCAASSGLMTKKNSTFVRVHEK
# notes: range 129-231;range 226-327; also called Eylea; VEFGR1d2-VEGFR2d3 VEGF Trap
# Experiments:
# [1] = target: chimeric VEGFR1 receptors on HEK293/D9/Flt-IL18Rα/Flt-IL18Rβ clone V3H9 cells (UniProt P17948 27-758; Q13478 351-541; P17948 27-758; O95256 378-599, limits assumed); experiment: cell-based or functional assay
# [2] = target: B2; experiment: SPR, Biacore 3000, 25 C; trap captured on anti-VEGFR1 mAb surface, hVEGF165 injected; 1:1 fit
# [3] = target: B2; experiment: SPR, Biacore, 25 C; trap captured on anti-VEGFR1 mAb surface, hVEGF165 injected; 1:1 fit
# Method: (§1) Experimental Procedure. Equilibrium dissociation constants (KD values) for human VEGF₁₆₅ binding to various purified VEGF mini-trap constructs were determined using a real-time surface plasmon resonance biosensor using a Biacore 3000 instrument. All binding studies were performed in 10 mM HEPES, 150 mM NaCl, 3 mM EDTA, and 0.05% v/v Surfactant Tween-20, pH 7.4 (HBS-ET) running buffer at 25° C. The Biacore sensor surface was first derivatized by amine coupling with a monoclonal mouse anti-VEGFR1 antibody to capture VEGF mini-trap constructs. Binding studies were performed on the human VEGF reagent, human VEGF₁₆₅ (human VEGF₁₆₅; SEQ ID NO: 31). Different concentrations of VEGF₁₆₅ reagent, prepared in HBS-ET running buffer (2 nM — 62.5 pM; 2-fold serial dilution for human VEGF₁₆₅), were injected over an anti-VEGFR1-captured VEGF mini-trap construct surface for 1.8 minutes at a flow rate of 90 μL/minute, while the dissociation of VEGF mini-trap constructs bound VEGF₁₆₅ reagent was monitored for 60 minutes in HBS-ET running buffer. Kinetic association (kₐ) and dissociation (kd) rate constants were determined by fitting the real-time sensorgrams to a 1:1 binding model using Scrubber 2.0c curve fitting software. Binding dissociation equilibrium constants (KD) and dissociative half-lives (t½) were calculated from the kinetic rate constants as: […]
# [4] = target: T1, VEGF121 (hVEGF121, aa 207-327) (human, UniProt P15692 207-327); experiment: cell-based or functional assay
# T1 chain: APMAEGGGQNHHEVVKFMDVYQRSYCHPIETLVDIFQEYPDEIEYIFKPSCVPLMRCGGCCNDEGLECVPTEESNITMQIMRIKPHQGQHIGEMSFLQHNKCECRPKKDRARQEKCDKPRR
# human VEGF165 (REGN110) [5] = target: B1; experiment: cell-based or functional assay
# [6] = target: T2, VEGF110 (hVEGF110, aa 207-318) (human, UniProt P15692 207-318); experiment: cell-based or functional assay
# T2 sequence (looked up): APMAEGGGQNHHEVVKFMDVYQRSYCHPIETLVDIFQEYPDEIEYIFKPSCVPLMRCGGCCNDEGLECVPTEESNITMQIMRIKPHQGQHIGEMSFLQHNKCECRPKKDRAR
# human VEGF165 (REGN110) [7] = target: B1; experiment: SPR, Biacore 3000, 25 C; trap captured on anti-VEGFR1 mAb surface, hVEGF165 injected
# human VEGF165 (REGN110) [8] = target: B1; experiment: SPR, Biacore 3000, 25 C; trap captured on anti-VEGFR1 mAb surface, hVEGF165 injected; 1:1 fit
# [9] = target: T1, VEGF121 (hVEGF121, aa 207-327); experiment: cell-based or functional assay
# human VEGF165 (REGN110) [10] = target: B1; experiment: cell-based or functional assay; remark: listed apart in the source
# [11] = target: T2, VEGF110 (hVEGF110, aa 207-318); experiment: cell-based or functional assay; remark: listed apart in the source
# human VEGF165 (REGN110) [12] = target: B1; experiment: SPR, Biacore, 25 C; trap captured on anti-VEGFR1 mAb surface, hVEGF165 injected
# Method: as §1
# [13] = target: T1, VEGF121 (hVEGF121, aa 207-327); experiment: cell-based or functional assay
# [14] = target: T2, VEGF110 (hVEGF110, aa 207-318); experiment: cell-based or functional assay; remark: listed apart in the source
# human VEGF165 (REGN110) [15] = target: B1; experiment: SPR, Biacore, 25 C; trap captured on anti-VEGFR1 mAb surface, hVEGF165 injected; 1:1 fit
# Method: as §1
# [16] = target: T2, VEGF110 (hVEGF110, aa 207-318); experiment: cell-based or functional assay; remark: listed apart in the source
# human VEGF165 (REGN110) [17] = target: B1; experiment: cell-based or functional assay; remark: listed apart in the source
# [18] = target: T1, VEGF121 (hVEGF121, aa 207-327); experiment: cell-based or functional assay
# chimeric VEGFR1 receptors on HEK293/D9/Flt-IL18Rα/Flt-IL18Rβ clone V3H9 cells, sequence (P17948 other isoform, or with tags, fused parts or gaps mutant limits assumed, chain 1 of 2): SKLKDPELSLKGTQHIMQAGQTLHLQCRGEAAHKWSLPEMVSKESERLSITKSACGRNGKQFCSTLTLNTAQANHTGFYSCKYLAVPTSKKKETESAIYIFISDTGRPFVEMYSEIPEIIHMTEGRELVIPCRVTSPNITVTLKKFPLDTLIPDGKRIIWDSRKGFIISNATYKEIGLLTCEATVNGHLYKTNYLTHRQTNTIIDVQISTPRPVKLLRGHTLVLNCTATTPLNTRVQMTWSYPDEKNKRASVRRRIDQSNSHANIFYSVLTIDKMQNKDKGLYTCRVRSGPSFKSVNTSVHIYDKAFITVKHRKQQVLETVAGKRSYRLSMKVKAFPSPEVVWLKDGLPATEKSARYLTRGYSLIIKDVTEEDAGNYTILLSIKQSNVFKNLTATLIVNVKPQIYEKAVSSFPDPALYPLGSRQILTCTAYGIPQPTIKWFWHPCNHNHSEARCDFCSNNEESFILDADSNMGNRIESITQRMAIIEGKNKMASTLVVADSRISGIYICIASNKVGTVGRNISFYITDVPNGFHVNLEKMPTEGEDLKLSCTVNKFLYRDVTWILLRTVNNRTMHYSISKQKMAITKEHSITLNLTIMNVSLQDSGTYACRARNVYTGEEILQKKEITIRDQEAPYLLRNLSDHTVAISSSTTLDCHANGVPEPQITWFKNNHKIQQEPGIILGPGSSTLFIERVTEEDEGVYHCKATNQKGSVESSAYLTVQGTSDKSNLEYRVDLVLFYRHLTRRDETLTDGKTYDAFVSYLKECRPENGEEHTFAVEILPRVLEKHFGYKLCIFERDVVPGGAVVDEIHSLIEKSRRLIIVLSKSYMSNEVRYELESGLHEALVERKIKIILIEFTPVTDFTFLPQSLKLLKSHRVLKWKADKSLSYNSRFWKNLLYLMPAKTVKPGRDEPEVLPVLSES
# chimeric VEGFR1 receptors on HEK293/D9/Flt-IL18Rα/Flt-IL18Rβ clone V3H9 cells, sequence (P17948 other isoform, or with tags, fused parts or gaps mutant limits assumed, chain 2 of 2): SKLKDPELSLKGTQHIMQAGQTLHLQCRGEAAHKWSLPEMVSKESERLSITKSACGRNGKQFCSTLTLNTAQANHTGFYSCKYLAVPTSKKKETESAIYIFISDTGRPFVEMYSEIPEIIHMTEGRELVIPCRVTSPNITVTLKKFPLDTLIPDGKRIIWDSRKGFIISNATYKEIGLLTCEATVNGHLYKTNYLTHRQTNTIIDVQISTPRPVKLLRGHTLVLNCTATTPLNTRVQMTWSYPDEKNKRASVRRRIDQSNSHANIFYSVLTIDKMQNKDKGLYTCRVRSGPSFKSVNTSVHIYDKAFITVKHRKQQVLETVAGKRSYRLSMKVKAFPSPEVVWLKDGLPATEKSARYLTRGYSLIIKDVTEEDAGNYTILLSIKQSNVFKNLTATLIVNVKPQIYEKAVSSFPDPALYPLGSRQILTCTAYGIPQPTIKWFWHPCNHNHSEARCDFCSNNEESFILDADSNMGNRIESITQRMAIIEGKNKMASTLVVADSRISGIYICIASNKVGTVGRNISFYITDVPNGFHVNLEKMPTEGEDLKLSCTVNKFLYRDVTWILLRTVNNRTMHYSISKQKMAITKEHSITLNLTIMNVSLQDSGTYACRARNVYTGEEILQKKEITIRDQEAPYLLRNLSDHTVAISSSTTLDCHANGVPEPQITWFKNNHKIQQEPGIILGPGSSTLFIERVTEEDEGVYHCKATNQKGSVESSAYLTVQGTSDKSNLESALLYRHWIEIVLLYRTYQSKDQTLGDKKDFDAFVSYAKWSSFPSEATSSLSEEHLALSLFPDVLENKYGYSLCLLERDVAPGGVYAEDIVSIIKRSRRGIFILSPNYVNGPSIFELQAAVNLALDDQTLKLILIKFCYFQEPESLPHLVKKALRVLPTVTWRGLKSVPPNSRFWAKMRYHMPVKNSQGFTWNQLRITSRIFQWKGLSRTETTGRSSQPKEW
binder,measurement,setting,value
B1,"EC50 (M), activation of HEK293/D9/Flt-IL18Ra/Flt-IL18Rb (luciferase)",[1],4.3e-11 M
same,Kd,[2],≤ 0.00179 nM
same,Kd,[3],≤ 0.00127 nM
B2,"IC50 (M), inhibition of VEGFR1 signaling (luciferase), 20 pM VEGF121",[4],1.26e-11 M
same,"IC50 (M), inhibition of VEGFR1 signaling (luciferase), 20 pM VEGF165",human VEGF165 (REGN110) [5],2.09e-11 M
same,"IC50 (M), inhibition of VEGFR1 signaling (luciferase), 20 pM VEGF110",[6],1.15e-11 M
same,100 nM hVEGF165 Bound,human VEGF165 (REGN110) [7],21 RU
same,t½ (dissociative half-life),human VEGF165 (REGN110) [8],≥ 19.2 h
same,"IC50 (M), inhibition of VEGFR1 signaling (luciferase), 20 pM VEGF121",[9],8.94e-12 M
same,"IC50 (M), inhibition of VEGFR1 signaling (luciferase), 20 pM VEGF165",human VEGF165 (REGN110) [10],1.18e-11 M
same,"IC50 (M), inhibition of VEGFR1 signaling (luciferase), 20 pM VEGF110",[11],1.53e-11 M
same,2nM hVEGF165 Bound,human VEGF165 (REGN110) [12],29 RU
same,"IC50 (M), inhibition of VEGFR1 signaling (luciferase), 20 pM VEGF121",[13],9.64e-12 M
same,"IC50 (M), inhibition of VEGFR1 signaling (luciferase), 20 pM VEGF110",[14],1.53e-11 M
same,t1/2 (dissociative half-life),human VEGF165 (REGN110) [15],≥ 19.2 h
REGN112 (receptor) SDTGRPFVEMYSEIPEIIHMTEGRELVIPCRVTSPNITVTLKKFPLDTLIPDGKRIIWDSRKGFIISNATYKEIGLLTCEATVNGHLYKTNYLTHRQTNTIIDVVLSPSHGIELSVGEKLVLNCTARTELNVGIDFNWEYPSSKHQHKKLVNRDLKTQSGSEMKKFLSTLTIDGVTRSDQGLYTCAASSGLMTKKNSTFVRVHEKDKTHTCPPC,IC50 (read off the curve); VEGFR1 reporter luciferase with 20 pM VEGF110 constant,[16],~1e-10 M
same,IC50 (read off the curve); VEGFR1 reporter luciferase with 40 pM VEGF165 constant,human VEGF165 (REGN110) [17],~2e-10 M
same,IC50 (read off the curve); VEGFR1 reporter luciferase with 40 pM VEGF121 constant,[18],~1e-10 M
